Assay results: paper PMC8001920, “Selecting Subpopulations of High-Quality Protein Conformers among Conformational Mixtures of Recombinant Bovine MMP-9 Solubilized from Inclusion Bodies” (International Journal of Molecular Sciences, 2021)

Biological target: the molecule itself
Test: SDS-PAGE and Western blot; IMAC peaks of solubilized MMP-9 from L. lactis, mixed 1:1 with Laemmli buffer, boiled at 90 °C for 10 min, run with 0.1% SDS, detected with anti-His-tag monoclonal antibody; bands of high molecular weight

B1: recombinant bovine MMP-9 fragment (Phe107-Pro449), C-terminally His-tagged, produced in L. lactis (domain or fragment)
chain: not shown
notes: matrix metalloproteinase 9 (MMP-9), bovine, fragment Phe107-Pro449 of NCBI NM_174744.2; The same fragment was also made in Clearcoli BL21(DE3) (pETDuet); no result on self-association is told for that material; also called matrix metalloproteinase 9; solubilized MMP-9; not shown: 6His-tag, C-terminal, kept
  binding result: binds
